Experiment: soluble on expression in E. coli; label from the status in PepcDB or PDB records

Row | Sequence | soluble on expression in E. coli
1 | MEVSTVNDVKIYNLSAGKSLPEWMSSRTRRKLEQRNTDVRQRIQLIQDFEMPDVSNTVNITPDGKYVWASGNYKPWLRCYDLNNLSLKFERGLDADVIKLIPLSDDYSKVVILEEERWIEMHAMLGRYFRMRMPCQGRDMALSEESSDLYLVGSKSEVYRFNLEQGCWLTPFESTAPLNCVQVCTEHQLICCGTTNGVVEAWDHRDKSLCGTLDAGSSVNSHIGENQKVAVTSVAFSDPLHIGVGTSTGQILIYDLRARRPLLIKDHNNELPINKLDFIKRDDGDVVASMDSRMMKLWHEEDGSPMAAIENTCPLNDFCRFPNSGMFFFANEAPKMLQYFIPQLGPAPKWCSYLENLTEEMEETETTVYDNYRFVTKKQLDDLGLSGLIGTNVLRAYMHGYFIDARLYNKAQTQMQPFAYEKYKDEKIKSMIADEREESAVKKKVEKLPAVNKALAARLRDEASAANQKAETKKEKKKSKKSDAATSLLADDRFKKLFESEDFEVDETSEQFLKNASIAQKMKAKGPVEVESEGEESEDNDASDSENEASGSDSEPKGSASWMVEENREVDMASDLESASSDEDIDQSLKAKRAKVRAAKKSERNIQKSQKYDERKEAKKIRKEQRQLSKPSKFVLHSIGTGETTRKFVDETVAVRDDADNKDSMALGARKRATARSDRKTKKVNDDDVPFGGREMTFTISKRDKDLRAEAAKTKQAAHAAERKEVSRRPNALVTKGLKKLPGNVNVGKRQNTF | soluble
2 | MTSTSFATIELLHDPRGFATLWLNRADKNNAFNAQMIRELILALDQVQGNAGLRFLLIRGRGRHFSAGADLAWMQQAADLDYNTNLDDARELAELMYNLARLKIPTLAVVQGAAFGGALGLISCCDMAIAAEDAQFCLSEVRIGLAPAVISPFVVQAIGERATRRYALTAERFDGRQARHIGLIAECYPVADLEHQTLGWIDNLLLNSPQAMRISKELLREVGSGELTPALRRYCESAIARIRTSAEGQEGLRAFLQKRTPGWQQRDDEPAALEDRQKDSQR | not soluble
3 | MASTGLRVDLYEEHGRVGMPEHCTGIVSERTVNTIGREARETIIDSYDSLEIRFRGETLAVLDVGTVYRLDRVRLEELLLESLMSLGGRAQLGKRVHSVGIEGSVKAGGSEARYDAVILADGAHGELHRMLDLGYRGDYYYGLNILVPGKRESTILVDFILDRGLAFTWDVPTVGSVSVAGAMGTLAGVKRFFEVLKPRAFKVYGGRIPAGPPAERLRRGRVYVVGDAGGLVKPLSGGGLYPNAKAAKLAASLIKRGLDVGEALEKSLSIVSHELRAQHAVARLVYGTRVLETISRAVGGAPLRLRLDYDTHHQLVISTLSQVGALSSQRLAAAALRGGGLEAPLSLVKVLYHSSASAYKRLASGRLPGVLEHHHHHH | not soluble
4 | MTEADYGEMVRREKCIMFVKRFCPYSIRARELLHDRGVGCKIIEVDNNLDAYSFAKRNHSTFPVFFLDGDLVEGGCEKLLVLSDSNLPPFDKSPLLTQNREPVLLD | not soluble
5 | MGHHHHHHSHMTLEEVRGQDTVPESTARMQGAGKALHELLLSAQRQGCLTAGVYESAKVLNVDPDNVTFCVLAAGEEDEGDIALQIHFTLIQAFCCENDIDIVRVGDVQRLAAIVGAGEEAGAPGDLHCILISNPNEDAWKDPALEKLSLFCEESRSVNDWVPSITLPE | soluble
6 | MSTFFRQTAQAMIAKHINRFPLLKLDQVIDWQPIEQYLNRQKTRYLRDHRGRPAYPLLSMFKAVLLGQWHSLSDPELEHSLITRIDFNLFCRFDELSIPDYSTLCRYRNWLAQDDTLSELLELINCQLTEKGLKVEKASAAVIDATIIQTAGSEQRQAIEVDEEGQISGQTTPSKDSDARWIKKNGLYKLGYKQHTRTDAEGYIEKLHITPANAHECKHLSPLLEGLPEGTTVYADKGYDSAENRQHLEEHQLLDGIMSKACRNRPLSEVQTKRNRYLSKTRYSGLNLNQDKATKPQTVQIVRQGEATPYWFKFNPLYVVEQSFGTLHRKFRYARAAYFGLIKVSAQSHLKAMCLNLLKAANRLSAPAAA | not soluble
7 | MGSDKIHHHHHHMEIPPEILQSLIELGFTKYEVLTYWTLLVYGPSTAKEISIRSGIPYNRVYDTISSLKVRGFVTEIEGNPKVYAAYSPRIAFLRFKKELDEISEKLEKAISEVKREERCRPSIWRSHDFEEAIEMFKETLESSENEVIVVTPSEFFKSIRETLIGILDRGVTLSLYIDKVPDISDFEGRGNFFLRRFTKFNHLIGLADGKVVATIQNVSFMPPSPPSFKSTFKEIIFSQYSLTLEIFKESSLEVEQIMNPQDIRFFAVFHAADFVKRHLPSSTIFSEIVGRNVKTGEVEKLYGKVVGYTLSFREGVNNIQIETEKGIVKVGGMFAVIEDYESTNVRLMLES | not soluble
8 | MGSDKIHHHHHHMPINIRRATINDIICMQNANLHNLPENYMMKYYMYHILSWPEASFVATTTTLDCEDSDEQDENDKLELTLDGTNDGRTIKLDPTYLAPGEKLVGYVLVKMNDDPDQQNEPPNGHITSLSVMRTYRRMGIAENLMRQALFALREVHQAEYVSLHVRQSNRAALHLYRDTLAFEVLSIEKSYYQDGEDAYAMKKVLKLEELQISNFTHRRLKENEEKLEDDLESDLLEDIIKQGVNDIIV | not soluble
9 | MTDSKYFTTTKKGEIFELKNELNSDKKEKKKEAVKKVIASMTVGKDVSALFPDVVNCMQTDNVELKKLVYLYLMNYAKSQPDLAIMAVNTFVKDCEDPNPLIRALAVRTMGCIRVEKITEYLCDPLRRCMKDEDPYVRKTAAVCVAKLHDMNPALVKEQGFVELLNDLLSDANPMVVANAVAALTEMNEQQTVIEVNSQMVNKLLTALNECTEWGQVFILDALAGYTPRDERETQNICERISPRLAHANAAVVLSTVKVLMKLIDMMPADSDFITQLTKKLAPPMVTLLSAEPEIQYVALRNINLIVQKRPDILKQEMKVFFVKYNDPIYVKMEKLDIMIRLAQQNNIAQVLSELKEYATEVDVDFVRKSVRAIGRCAIKVEASSERCVQTLLELIQTKVNYVVQEAVVVIKDIFRKYPNRYESIISALCENLDTLDEPEARASMIWIIGEYAERIDNADELLESFVEGFHDENTQVQLQLLTAVVKLFLKRPGVAQALVQRVLSLATQDSDNPDLRDRGFIYWRLLSADPAAAKNVVLTEKPLISEETDLLEPSLLEQLVCHIGTLASVYHKPPSAFIDPAKAPLRQINPIPAAKFGSSLLDTSSTPNAARNGSAAAPTVIPSQDQVIADLLSLDLNAPAASANTGAFGGAMSGTTSMGGLDDLLGLGGDPMPAAPTNSASYNPFDGLGGLGGAAPAAPPSQQPASIGGLAEIFGSGGFGGSSGITYPKELWLDASKAMGMQVEGTFVRRGGKIFMEMTITNRAMQAISGFALQFNKNSFGLIPVEQVNPAPILPNQSQNYTIACDTTGAVQVTTPLTNLQVSCSL | not soluble
10 | MIKLSEKGVFLASNNEIIAEEHFTGEIKKEEAKKGTIAWSILSSHNTSGNMDKLKIKFDSLASHDITFVGIVQTAKASGMERFPLPYVLTNCHNSLCAVGGTINGDDHVFGLSAAQRYGGIFVPPHIAVIHQYMREMMAGGGKMILGSDSHTRYGALGTMAVGEGGGELVKQLLNDTWDIDYPGVVAVHLTGKPAPYVGPQDVALAIIGAVFKNGYVKNKVMEFVGPGVSALSTDFRNSVDVMTTETTCLSSVWQTDEEVHNWLALHGRGQDYCQLNPQPMAYYDGCISVDLSAIKPMIALPFHPSNVYEIDTLNQNLTDILREIEIESERVAHGKAKLSLLDKVENGRLKVQQGIIAGCSGGNYENVIAAANALRGQSCGNDTFSLAVYPSSQPVFMDLAKKGVVADLIGAGAIIRTAFCGPCFGAGDTPINNGLSIRHTTRNFPNREGSKPANGQMSAVALMDARSIAATAANGGYLTSASELDCWDNVPEYAFDVTPYKNRVYQGFVKGATQQPLIYGPNIKDWPELGALTDNIVLKVCSKILDEVTTTDELIPSGETSSYRSNPIGLAEFTLSRRDPGYVSRSKATAELENQRLAGNVSELTEVFARIKQIAGQEHIDPLQTEIGSMVYAVKPGDGSAREQAASCQRVIGGLANIAEEYATKRYRSNVINWGMLPLQMAEVPTFEVGDYIYIPGIKAALDNPGTTFKGYVIHEDAPVTEITLYMESLTAEEREIIKAGSLINFNKNRQM | soluble
11 | MSYKGSSIPVCSRISSLYFFSVYLQDLADMEDRTSTSRCSSTTRIKPTKIAGFGTVPLLSSAGTNQSVLSTKSAKSCLSNTIAASMTEPQVSMTQVDRMYEDNLARKKRSMVAVSEFNKIYGQEYHPPSSSESTRSFYENIDAVYPSSKASESSSSSASTGSSDNRKDIEKWEKLDSEAESDIELFIKVSDCFD | not soluble
12 | GSHMSRLLEDFRNQRYPNLQLRDLANHIVEFSQDQHGSRFIQQKLERATAAEKQMVFSEILAAAYSLMTDVFGNYVIQKFFEFGTPEQKNTLGMQVKGHVLQLALQMYGCRVIQKALESISPEQQQEIVHELDGHVLKCVKDQNGNHVVQKCIECVDPVALQFIINAFKGQVYSLSTHPYGCRVIQRILEHCTAEQTTPILDELHEHTEQLIQDQYGNYVIQHVLEHGKQEDKSILINSVRGKVLVLSQHKFASNVVEKCVTHATRGERTGLIDEVCTFNDNALHVMMKDQYANYVVQKMIDVSEPTQLKKLMTKIRKNMAAL | soluble
13 | MTQFETERLILRPMTAADHDALADMIFDPQVVAYLRYRRVQSPAAFEQLFTTHFLADTTTVFGIERRRDHQLIGFYEFHGSGATGELTYALSPAAWGHGYVAEAGNCLMHYGFETLNYETIEAHYASANPNSGRVMAKMGMQAAGELHTFTSDKGEVIHVMRYLLTKATWRQLSA | not soluble
14 | MSLKSISLLLLSLLMITPSCQKPKEVTNEYNIVPQPNQLVPKEGRFELSNKVRLVVPSDAPEVKKVADGFAEQLKQTAGISLTEAESVDGKPAISFVLQEGMPKEGYKLSVTPTLITVTASQPNGFFYGVQTIYQLLPPAVYGKELKKKADWSVPAVEIEDAPRFVHRGLMLDVCRHYAPIEYIYKFIDLLAMNKMNVFHWHLTDDQGWRIEIKKYPKLTEIGSKREKTLVDYYYVNYPQVFDGIEHGGYYTQEQIKEVVAYAASKYINVIPEIEMPGHALAALAAYPELSCDSTQTYKVSPTWGVFEQVFCPSETTFKFFEGVMDEVVELFPSEYIHIGGDECPKTAWKNSTFCQQLIRQLGLKDDATPSKVDGVKHSKEDKLQSYFVTRMEKYLNGKGRNIIGWDEILEGGLAPNATVLSWRGVEGGLNAAKAGHNAIMAPMPYAYLDFYQEDPEIAPTTIGGYTTLKKTYSYNPVPDNADELVKKHIIGMQGNLWREYMKTSDRVDYQAFPRAMAIAETGWTLDANKNWKSFCERMVTEFERLEVMDTKPCLNFFDVNINTHADENGPLMVLLETFYPNAEIRYTTDGSEPTYGSTLYEQPFVLEGNIDLKAAAFKDGKMLGKVTNKPLYGNLLAGKEGHHHHHH | soluble
15 | MKKKDTCEIFGYDEEKVNRIQGDLQTVDISGVSQILKAIADENRAKITYALCQDEELCVCDIANILGVTIANASHHLRTLYKQGVVNFRKEGKLALYSLGGEAIRQIMMIALAHKKEVKVNV | soluble
16 | KRLQQKIEKGELDRMPEVKEADIECCGQHEVCEKDSLLAAVSKKIEYYDDEELDQFIGKEANAYTDEETNQFRDVLYTMQDIDVAGWVRSLQLRGIELPDDLKDEVFLIIGERRNG | soluble
17 | MSLNREAQGSQEGVRIRKARAQDIPIVMEINLESLPENYWYGFYKYILDNWGEAFLVAEVGGEIVGYAMSRVEQTSDPVLLGMKDELEGDKSVIDKILDAIRNQLSEERPVGHLVSIAVRPGFRGRGIGSKLLSATVRVMKNVYRVDAIFLEVRVSNMPAIRLYEKFGFRKVRRIKGYYRDGEDAFVMVKRLLEGHHHHHH | soluble

— the DeepSol protein solubility set
